Test results from article PMC5128727, “Metalloprotease SPRTN/DVC1 Orchestrates Replication-Coupled DNA-Protein Crosslink Repair”.

Molecular target: T1, SPRTN WT (human, UniProt Q9H040 1-489)
T1 sequence: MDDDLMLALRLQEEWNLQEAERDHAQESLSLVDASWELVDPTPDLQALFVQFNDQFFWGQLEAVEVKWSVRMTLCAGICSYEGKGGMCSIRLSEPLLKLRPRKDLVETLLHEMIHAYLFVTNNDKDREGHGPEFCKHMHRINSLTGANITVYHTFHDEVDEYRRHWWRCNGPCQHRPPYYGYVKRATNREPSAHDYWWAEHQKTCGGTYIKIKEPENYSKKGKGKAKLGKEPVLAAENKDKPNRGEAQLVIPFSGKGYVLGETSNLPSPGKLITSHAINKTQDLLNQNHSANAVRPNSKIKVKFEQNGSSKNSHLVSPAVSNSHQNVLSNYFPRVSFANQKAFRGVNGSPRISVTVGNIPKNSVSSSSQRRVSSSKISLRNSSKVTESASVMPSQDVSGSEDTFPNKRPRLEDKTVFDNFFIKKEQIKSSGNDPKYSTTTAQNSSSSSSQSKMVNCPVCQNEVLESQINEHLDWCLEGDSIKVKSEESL
Experiment: fluorescence polarization; affinity similar to dsDNA; Probe annealing buffer: 10 mM HEPES pH 7.5, 50 mM NaCl; FP assay buffer and temperature not in the material
Settings: protein: recombinant; tags: His-ZB tag cleaved by TEV; label: FITC (position not in material); single strand

B1: ssDNA (OD1) (ssDNA)
DNA: ATCGATAGTCGGATCCTCTAGACAGCTCCATGTAGCAAGGCACTGGTAGAATTCGGCAGCGTC
binding result: binds
